Series [1] concerns the molecule itself. The series can be described thus: non-reducing SDS-PAGE.
Series [2] concerns the molecule itself. The series can be described thus: non-reducing SDS-PAGE. This is another data set of the same source.

By stoichiometry N is commonly meant the number of molecules, sites or subunits per partner or assembly.

Like-named read-outs stand apart in the source and are kept apart here.

B1: Fgf15 (wild-type, mouse), in Hek293T conditioned medium (ligand, UniProt O35622 26-218, looked up)
chain: RPLAQQSQSVSDEDPLFLYGWGKITRLQYLYSAGPYVSNCFLRIRSDGSVDCEEDQNERNLLEFRAVALKTIAIKDVSSVRYLCMSADGKIYGLIRYSEEDCTFREEMDCLGYNQYRSMKHHLHIIFIQAKPREQLQDQKPSNFIPVFHRSFFETGDQLRSKMFSLPLESDSMDPFRMVEDVDHLVKSPSFQK
As for B1, in the series “non-reducing SDS-PAGE [1]”, the “stoichiometry N” value stood at 2.

B2: Fgf15 (wild-type, mouse), in serum of mice after hydrodynamic delivery of the plasmid (ligand, UniProt O35622 26-218, looked up)
chain: B1 chain
Turning to B2, in “non-reducing SDS-PAGE [2]”, the “stoichiometry N” value worked out at 2.

(Values after article PMC12315504 (The FASEB Journal, 2021).)
